Source: patent US20240382605A1, “CONJUGATED OLIGONUCLEOTIDES AND USES THEREOF” (Ionis Pharmaceuticals, Inc., priority 2021, published 2024)

Experiments:
[1] = Example 8: plasma chemistry markers in hTFR^KI/+ knock in mice; format: in vivo, mouse; conditions: plasma day 15;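 note: plasma levels read on an automated clinical chemistry analyzer after three doses of conjugated modified oligonucleotide, with a PBS-treated group as negative control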
Text: (§1) Each mouse received an intravenous (i.v.) administration or subcutaneous (s.c.) administration of conjugated modified oligonucleotide for a total of 3 doses (on Days 1, 5, and 9) at doses indicated in the table below. […] A group of 4 mice received PBS as a negative control.
To evaluate the effect of modified oligonucleotides on liver and kidney function, plasma levels of albumin (ALB), alanine aminotransferase (ALT), aspartate aminotransferase (AST), blood urea nitrogen (BUN), total bilirubin (TBIL), total Protein (PROT), Creatine (CREAT), and Creatine Kinase (CK) were measured on the day the mice were sacrificed (day 15) using an automated clinical chemistry analyzer (Hitachi Olympus AU400c, Melville, NY).

mouse DMPK RNA = experiment: Example 8: mouse DMPK RNA and ED50 in tissues of hTFR^KI/+ knock in mice, multiple dose (RTPCR, day 15); format: in vivo;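 note: conjugated oligonucleotide given as three doses to hTFR^KI/+ knock-in mice, tissues taken at day 15 and mouse DMPK RNA quantified by real-time RT-PCR against PBS-treated controls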
Experimental: The activity and tolerability of modified oligonucleotides conjugated to CD71 bicycle ligands were tested in hTFR^KI/+ knock in mice (described herein above).
as §1
The mice were sacrificed six days post final administration (on day 15), and RNA was extracted from various muscle tissues (including quadriceps (Quad), tibialis anterior (TA), diaphragm, triceps, heart, gastrocnemius (gastroc)), aorta, sciatic nerve, and liver tissue for quantitative real time RTPCR analysis to measure amount of mouse DMPK RNA using mouse primer probe set RTS3181 (described herein above).

[2] = Example 8: hematology assays / blood cell counts in hTFR^KI/+ knock in mice; format: in vivo, mouse; conditions: for Mean corpuscular volume (MCV) / hematocrit (HCT) / hemoglobin (HGB) / mean corpuscular hemoglobin (MCH) / mean corpuscular hemoglobin concentration (MCHC) / red blood cell (RBC) count / white blood cell (WBC) count: blood day 15; for BAS (basophils) / LYM (lymphocytes) / MON (monocytes) / NEU (neutrophils) / PLT (platelets) / RETI (reticulocytes): day 15;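 for all read-outs here: mice given conjugated modified oligonucleotide, three doses total, blood cell counts measured at sacrifice, PBS-treated group of 4 mice serves as negative control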
Text: as §1
Blood obtained from mice on the day the mice were sacrificed (day 15) were sent to IDEXX BioResearch for measurement of blood cell counts. Counts taken include red blood cell (RBC) count, white blood cell (WBC) count, hemoglobin (HGB), hematocrit (HCT), Mean corpuscular volume (MCV), mean corpuscular hemoglobin (MCH), and mean corpuscularhemoglobin concentration (MCHC). Individual white blood cell counts, such as that of monocytes (MON), neutrophils (NEU), lymphocytes (LYM), eosinophils (EOS), basophils (BAS), reticulocytes, and platelets were evaluated.

[3] = Example 8: body and organ weights in hTFR^KI/+ knock in mice; format: in vivo, mouse; conditions: for Organ weight Kidney / Organ weight Liver / Organ weight Spleen: day 15
Experimental: as §1
Liver, kidney, and spleen weights were measured on the day the mice were sacrificed (day 15), and the average organ weights for each group are presented in the tables below.

[4] = reduction of mouse DMPK RNA, i.v., 3 doses on Days 1, 5, 9

## 1590463 BCY17896 (CPXDAYLGCXSYCX; not fully specified; non-natural residues; cyclised or stapled)
[1]; i.v. 1 mg/kg on Days 1, 5, 9
  Creatine (CREAT): 0.16 mg/dL
  alanine aminotransferase (ALT): 40 U/L
  albumin (ALB): 2.82 g/dL
  aspartate aminotransferase (AST): 111 U/L
  blood urea nitrogen (BUN): 24 mg/dL
  total Protein (PROT): 4.83 g/dL
  total bilirubin (TBIL): 0.12 mg/dL
[1]; i.v. 10 mg/kg on Days 1, 5, 9
  Creatine (CREAT): 0.16 mg/dL
  alanine aminotransferase (ALT): 34 U/L
  albumin (ALB): 2.70 g/dL
  aspartate aminotransferase (AST): 119 U/L
  blood urea nitrogen (BUN): 22 mg/dL
  total Protein (PROT): 4.57 g/dL
  total bilirubin (TBIL): 0.11 mg/dL
Mouse DMPK RNA; i.v. 1 mg/kg on Days 1, 5, 9
  Diaphragm mouse DMPK RNA (% control): 60 % control
  Gastrocnemius mouse DMPK RNA (% control): 75 % control
  Heart mouse DMPK RNA (% control): 81 % control
  Quadriceps mouse DMPK RNA (% control): 74 % control
  Tibialis Anterior mouse DMPK RNA (% control): 84 % control
Mouse DMPK RNA; i.v. 10 mg/kg on Days 1, 5, 9
  Diaphragm mouse DMPK RNA (% control): 16 % control
  Gastrocnemius mouse DMPK RNA (% control): 28 % control
  Heart mouse DMPK RNA (% control): 56 % control
  Quadriceps mouse DMPK RNA (% control): 23 % control
  Tibialis Anterior mouse DMPK RNA (% control): 28 % control
[2]; i.v. 1 mg/kg on Days 1, 5, 9
  Mean corpuscular volume (MCV): 40 fL
  hematocrit (HCT): 47%
  hemoglobin (HGB): 15 g/dL
  mean corpuscular hemoglobin (MCH): 13 pg
  mean corpuscular hemoglobin concentration (MCHC): 32 g/dL
  red blood cell (RBC) count: 12 10^12/L
  white blood cell (WBC) count: 8 10^3/μL
[2]; i.v. 10 mg/kg on Days 1, 5, 9
  Mean corpuscular volume (MCV): 41 fL
  hematocrit (HCT): 47%
  hemoglobin (HGB): 15 g/dL
  mean corpuscular hemoglobin (MCH): 13 pg
  mean corpuscular hemoglobin concentration (MCHC): 31 g/dL
  red blood cell (RBC) count: 11 10^12/L
  white blood cell (WBC) count: 9 10^3/μL

## 1590463 BCY17901 (CPXDAYLGCXSYCEPWX; not fully specified; non-natural residues; cyclised or stapled)
[1]; i.v. 1 mg/kg on Days 1, 5, 9
  Creatine (CREAT): 0.15 mg/dL
  alanine aminotransferase (ALT): 65 U/L
  albumin (ALB): 2.76 g/dL
  aspartate aminotransferase (AST): 107 U/L
  blood urea nitrogen (BUN): 23 mg/dL
  total Protein (PROT): 4.73 g/dL
  total bilirubin (TBIL): 0.13 mg/dL
[1]; i.v. 10 mg/kg on Days 1, 5, 9
  Creatine (CREAT): 0.15 mg/dL
  alanine aminotransferase (ALT): 35 U/L
  albumin (ALB): 2.63 g/dL
  aspartate aminotransferase (AST): 98 U/L
  blood urea nitrogen (BUN): 23 mg/dL
  total Protein (PROT): 4.53 g/dL
  total bilirubin (TBIL): 0.14 mg/dL
Mouse DMPK RNA; i.v. 1 mg/kg on Days 1, 5, 9
  Diaphragm mouse DMPK RNA (% control): 57 % control
  Gastrocnemius mouse DMPK RNA (% control): 74 % control
  Heart mouse DMPK RNA (% control): 75 % control
  Quadriceps mouse DMPK RNA (% control): 79 % control
  Tibialis Anterior mouse DMPK RNA (% control): 71 % control
Mouse DMPK RNA; i.v. 10 mg/kg on Days 1, 5, 9
  Diaphragm mouse DMPK RNA (% control): 14 % control
  Gastrocnemius mouse DMPK RNA (% control): 15 % control
  Heart mouse DMPK RNA (% control): 44 % control
  Quadriceps mouse DMPK RNA (% control): 14 % control
  Tibialis Anterior mouse DMPK RNA (% control): 14 % control
[2]; i.v. 1 mg/kg on Days 1, 5, 9
  Mean corpuscular volume (MCV): 40 fL
  hematocrit (HCT): 48%
  hemoglobin (HGB): 15 g/dL
  mean corpuscular hemoglobin (MCH): 13 pg
  mean corpuscular hemoglobin concentration (MCHC): 31 g/dL
  red blood cell (RBC) count: 12 10^12/L
  white blood cell (WBC) count: 7 10^3/μL
[2]; i.v. 10 mg/kg on Days 1, 5, 9
  Mean corpuscular volume (MCV): 41 fL
  hematocrit (HCT): 47%
  hemoglobin (HGB): 15 g/dL
  mean corpuscular hemoglobin (MCH): 13 pg
  mean corpuscular hemoglobin concentration (MCHC): 31 g/dL
  red blood cell (RBC) count: 11 10^12/L
  white blood cell (WBC) count: 9 10^3/μL

## 1590463-BCY17896: modified oligonucleotide 1590463 conjugated to CD71 bicycle ligand BCY17896 through a BCN linker (CPXDAYLGCXSYCX; not fully specified; non-natural residues; cyclised or stapled)
Mouse DMPK RNA; [4]
  Diaphragm ED50: 1.4 mg/kg
  Gastrocnemius ED50: 2.9 mg/kg
  Quadriceps ED50: 2.6 mg/kg
  Tibialis Anterior ED50: 3.3 mg/kg
[2]; 1 mg/kg i.v.
  BAS (basophils): 0.07%
  LYM (lymphocytes): 85%
  MON (monocytes): 5%
  NEU (neutrophils): 8%
  PLT (platelets): 1170 10^9/L
  RETI (reticulocytes): 439 10^3/μL
[2]; 10 mg/kg i.v.
  BAS (basophils): 0.07%
  LYM (lymphocytes): 84%
  MON (monocytes): 6%
  NEU (neutrophils): 8%
  PLT (platelets): 1087 10^9/L
  RETI (reticulocytes): 389 10^3/μL
[3]; 1 mg/kg i.v.
  Body weight Day 1: 27 g
  Body weight Day 15: 28 g
  Organ weight Kidney: 0.35 g
  Organ weight Liver: 1.49 g
  Organ weight Spleen: 0.07 g
[3]; 10 mg/kg i.v.
  Body weight Day 1: 24 g
  Body weight Day 15: 25 g
  Organ weight Kidney: 0.33 g
  Organ weight Liver: 1.39 g
  Organ weight Spleen: 0.07 g
